Experimental data published in patent publication US6750197B1, “Activators of endothelial nitric oxide synthase” (Rensselaer Polytechnic Institute, priority 1996, dated 2004).

Experiments:
NOS [1] = assay: Radioligand binding of [125I]-calmodulin to NOS; set-up: scale not given here; conditions: peptide 100 μg/ml; ligand 1 nM, 15 minutes at 23° C.; mean ± SEM
Protocol: (§1) NOS activity measurements were performed using recombinant rat NNOS (purified from overexpressing HEK293 cells), recombinant bovine ENOS (purified from overexpressing E. coli) or native INOS (from immunostimulant-activated rat aortic smooth muscle cells). Activity was determined with 1-20 pmole of NOS using a kinetic 96-well microtiter plate assay based on the kinetics of NADPH consumption (NNOS and ENOS) or Fe^2+-myoglobin oxidation. Radioligand binding was performed after incubation of 1-2 pmole of NOS for 15 minutes at 23° C. with either Bolton-Hunter labelled [125I]-calmodulin (1 nM) or [3H]-N-nitro-L-arginine (200 pM) and the indicated peptides. Values are means ±SEM of triplicate determinations.

NNOS [2] = target: T1, NNOS (Rattus norvegicus, UniProt P29476); assay: CAM binding: radiolabeled CAM trapped on a membrane by NNOS adhesion; conditions: no peptide: 774 ± 40
T1 sequence (P29476 whole entry): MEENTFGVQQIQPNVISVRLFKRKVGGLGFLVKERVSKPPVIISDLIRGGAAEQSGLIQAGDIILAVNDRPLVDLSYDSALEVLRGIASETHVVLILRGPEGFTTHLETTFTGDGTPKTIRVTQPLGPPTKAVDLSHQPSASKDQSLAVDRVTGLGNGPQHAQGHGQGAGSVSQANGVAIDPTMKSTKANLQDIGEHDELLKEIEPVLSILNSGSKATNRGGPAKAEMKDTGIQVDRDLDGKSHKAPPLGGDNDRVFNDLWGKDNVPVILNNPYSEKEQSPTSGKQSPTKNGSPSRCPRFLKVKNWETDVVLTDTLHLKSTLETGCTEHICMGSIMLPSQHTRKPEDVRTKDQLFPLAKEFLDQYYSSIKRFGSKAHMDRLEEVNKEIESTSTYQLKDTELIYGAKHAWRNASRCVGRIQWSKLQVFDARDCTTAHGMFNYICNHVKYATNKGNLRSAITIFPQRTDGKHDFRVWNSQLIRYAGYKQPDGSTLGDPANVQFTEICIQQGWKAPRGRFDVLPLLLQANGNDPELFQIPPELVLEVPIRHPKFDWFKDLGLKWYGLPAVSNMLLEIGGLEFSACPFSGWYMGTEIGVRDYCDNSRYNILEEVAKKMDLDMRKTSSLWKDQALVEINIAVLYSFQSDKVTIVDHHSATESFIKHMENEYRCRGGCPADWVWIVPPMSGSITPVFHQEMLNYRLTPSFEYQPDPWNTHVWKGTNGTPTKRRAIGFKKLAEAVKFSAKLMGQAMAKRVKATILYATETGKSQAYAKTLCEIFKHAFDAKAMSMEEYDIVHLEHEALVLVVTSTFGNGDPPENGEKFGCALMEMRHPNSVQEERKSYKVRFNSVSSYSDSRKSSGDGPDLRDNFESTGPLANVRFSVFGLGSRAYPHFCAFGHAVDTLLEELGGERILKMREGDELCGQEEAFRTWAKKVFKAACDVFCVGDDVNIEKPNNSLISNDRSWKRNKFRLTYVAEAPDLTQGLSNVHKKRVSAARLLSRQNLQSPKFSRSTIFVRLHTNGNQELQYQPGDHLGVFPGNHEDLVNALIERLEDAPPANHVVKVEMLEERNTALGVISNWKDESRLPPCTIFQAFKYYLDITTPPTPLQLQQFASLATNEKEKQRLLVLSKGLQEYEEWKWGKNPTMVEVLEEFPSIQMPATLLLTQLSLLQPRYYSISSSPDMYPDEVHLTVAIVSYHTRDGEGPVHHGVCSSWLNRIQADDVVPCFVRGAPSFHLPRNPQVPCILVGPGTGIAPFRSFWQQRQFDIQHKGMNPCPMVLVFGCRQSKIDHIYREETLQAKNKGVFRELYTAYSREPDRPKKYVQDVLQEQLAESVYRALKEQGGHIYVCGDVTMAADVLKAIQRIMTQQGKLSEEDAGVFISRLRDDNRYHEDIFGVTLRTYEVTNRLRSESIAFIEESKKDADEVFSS
Protocol: (§2) JX series polypeptides are approximately 30-mers derived from ENOS and NNOS inhibitory polypeptides. B058 series are shorter (6-mers to 15-mers) peptides derived from flanking loops or from shorter segments of inhibitory polypeptides. CAM binding data represents counts from radiolabeled CAM trapped on a membrane by NNOS adhesion. INOS activity was assayed by measuring oxidation of ferrous myoglobin by product NO.

NNOS [3] = target: T1, NNOS; assay: Effects on calmodulin binding (Example 3), NNOS
Excerpt: (§3) In addition to the inhibition of enzyme activity, it is possible to modulate CAM binding to NOS with synthetic homologs of the control site elements. The relationship between enzyme inhibition and CAM binding in the presence of control site elements can be complex. In other systems, antibodies to inhibitory elements sometimes induce partial CAM independent activation, while preventing CAM dependent activation. It is important to remember that CAM binding is only a means to displace the inhibitor.
(§4) While a number of the polypeptides could modulate CAM binding, the series containing the RRKRK (SEQ ID NO: 10) motif was the most instructive. […] CAM binding was decreased almost to background levels, with effects seen at the 10 uM level.

ENOS = target: T2, ENOS (Bos taurus, UniProt P29473); assay: Effects on calmodulin binding (Example 3), ENOS
T2 sequence (P29473 2-1205): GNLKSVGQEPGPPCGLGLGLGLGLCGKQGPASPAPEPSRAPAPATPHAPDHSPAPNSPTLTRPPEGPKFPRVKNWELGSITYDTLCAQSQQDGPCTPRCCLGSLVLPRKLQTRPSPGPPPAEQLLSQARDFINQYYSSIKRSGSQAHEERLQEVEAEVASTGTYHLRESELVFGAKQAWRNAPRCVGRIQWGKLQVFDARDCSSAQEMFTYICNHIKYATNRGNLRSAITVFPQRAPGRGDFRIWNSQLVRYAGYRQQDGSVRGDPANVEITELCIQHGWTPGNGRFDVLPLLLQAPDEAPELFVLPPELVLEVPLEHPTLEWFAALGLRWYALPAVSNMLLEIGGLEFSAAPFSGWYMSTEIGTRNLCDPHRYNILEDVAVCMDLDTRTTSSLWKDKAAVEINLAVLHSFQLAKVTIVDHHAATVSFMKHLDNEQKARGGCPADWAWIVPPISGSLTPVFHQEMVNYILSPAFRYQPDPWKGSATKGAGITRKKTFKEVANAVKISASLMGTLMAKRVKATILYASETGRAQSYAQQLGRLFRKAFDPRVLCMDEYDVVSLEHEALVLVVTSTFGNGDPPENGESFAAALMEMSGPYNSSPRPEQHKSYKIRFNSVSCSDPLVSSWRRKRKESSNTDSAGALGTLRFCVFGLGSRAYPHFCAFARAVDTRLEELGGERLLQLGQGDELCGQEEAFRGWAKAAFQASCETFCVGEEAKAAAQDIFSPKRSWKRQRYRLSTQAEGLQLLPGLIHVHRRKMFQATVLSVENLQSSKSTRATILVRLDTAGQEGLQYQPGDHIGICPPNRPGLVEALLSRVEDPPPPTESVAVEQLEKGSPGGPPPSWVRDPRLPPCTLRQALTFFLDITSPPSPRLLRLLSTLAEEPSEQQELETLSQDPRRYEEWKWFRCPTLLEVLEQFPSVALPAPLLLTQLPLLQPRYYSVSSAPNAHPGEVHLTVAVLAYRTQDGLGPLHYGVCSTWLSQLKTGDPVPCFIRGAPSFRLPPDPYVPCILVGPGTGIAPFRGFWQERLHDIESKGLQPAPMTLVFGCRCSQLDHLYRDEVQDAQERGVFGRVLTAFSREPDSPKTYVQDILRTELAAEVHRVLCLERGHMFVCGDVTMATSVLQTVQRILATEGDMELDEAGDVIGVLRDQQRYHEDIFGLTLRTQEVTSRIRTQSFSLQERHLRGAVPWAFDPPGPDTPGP
Excerpt: as §3, §4

NOS [4] = assay: Radioligand binding of [3H]-N-nitro-L-arginine to NOS; set-up: scale not given here; conditions: peptide 100 μg/ml; ligand 200 pM, 15 minutes at 23° C.; mean ± SEM
Protocol: as §1

INOS = INOS (Rattus norvegicus, UniProt Q06518); assay: INOS activity by oxidation of ferrous myoglobin by product NO; format: biochemical; set-up: unit not given here; conditions: peptide 0.1 mg/ml; no peptide: 14.9 ± .56
Protocol: as §2

[5] = target: T3, native INOS (from immunostimulant-activated rat aortic smooth muscle cells) (Rattus norvegicus, UniProt Q06518); assay: NOS activity, kinetic 96-well microtiter plate assay, Fe2+-myoglobin oxidation; format: biochemical; conditions: peptide 100 μg/ml; mean ± SEM, triplicate
T3 construct: endogenous in cells
Protocol: as §1

recombinant rat NNOS = target: T4, recombinant rat NNOS (Rattus norvegicus, UniProt P29476); assay: NOS activity, kinetic 96-well microtiter plate assay, NADPH consumption; format: biochemical; conditions: peptide 100 μg/ml; mean ± SEM, triplicate
T4 construct: made in house; host or cells: HEK293 cells
T4 sequence (P29476 whole entry): as the sequence (P29476 whole entry) above
Protocol: as §1

recombinant bovine ENOS = target: T5, recombinant bovine ENOS (Bos taurus, UniProt P29473); assay: as above; format: biochemical; conditions: peptide 100 μg/ml; mean ± SEM, triplicate
T5 construct: made in house; host or cells: E. coli
T5 sequence (P29473 1-1205): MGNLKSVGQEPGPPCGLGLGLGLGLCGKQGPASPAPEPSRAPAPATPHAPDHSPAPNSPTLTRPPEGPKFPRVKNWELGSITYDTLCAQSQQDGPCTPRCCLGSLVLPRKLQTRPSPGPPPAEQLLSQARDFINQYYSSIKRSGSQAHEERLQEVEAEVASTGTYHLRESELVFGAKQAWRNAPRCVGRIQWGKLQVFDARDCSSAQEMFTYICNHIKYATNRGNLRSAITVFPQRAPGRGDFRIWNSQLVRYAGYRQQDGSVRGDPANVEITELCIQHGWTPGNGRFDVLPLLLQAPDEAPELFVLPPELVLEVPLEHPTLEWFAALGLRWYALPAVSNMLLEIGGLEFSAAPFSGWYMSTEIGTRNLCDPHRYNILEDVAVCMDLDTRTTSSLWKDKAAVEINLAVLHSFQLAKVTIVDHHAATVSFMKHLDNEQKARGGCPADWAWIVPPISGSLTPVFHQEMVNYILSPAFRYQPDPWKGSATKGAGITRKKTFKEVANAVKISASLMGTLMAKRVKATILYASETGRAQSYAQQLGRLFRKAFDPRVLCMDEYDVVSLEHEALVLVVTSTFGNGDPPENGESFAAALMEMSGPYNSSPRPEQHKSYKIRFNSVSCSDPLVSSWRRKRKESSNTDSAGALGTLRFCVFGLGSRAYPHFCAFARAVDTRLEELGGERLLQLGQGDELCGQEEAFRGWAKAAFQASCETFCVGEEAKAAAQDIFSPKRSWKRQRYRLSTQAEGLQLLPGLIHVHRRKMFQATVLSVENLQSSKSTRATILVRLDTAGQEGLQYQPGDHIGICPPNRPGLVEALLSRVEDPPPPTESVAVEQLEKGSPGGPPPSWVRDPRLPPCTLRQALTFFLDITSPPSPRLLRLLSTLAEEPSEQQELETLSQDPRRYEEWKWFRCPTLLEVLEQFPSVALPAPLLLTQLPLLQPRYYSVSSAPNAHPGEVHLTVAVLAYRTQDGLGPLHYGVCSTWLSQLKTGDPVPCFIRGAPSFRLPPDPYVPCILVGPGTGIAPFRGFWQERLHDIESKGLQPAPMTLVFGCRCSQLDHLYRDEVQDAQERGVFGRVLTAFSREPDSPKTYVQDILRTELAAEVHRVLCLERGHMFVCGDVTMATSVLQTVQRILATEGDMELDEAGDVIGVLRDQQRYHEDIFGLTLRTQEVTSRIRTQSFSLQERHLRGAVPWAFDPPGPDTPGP
Protocol: as §1

- Ligand binding to NOS [125I]-CAM (NOS [1]): 0.0 ± 0.5
- NNOS CAM Binding (NNOS [2]): 152 ± 26 counts
- effect on CAM binding to NNOS (in words) (NNOS [3]): potent CAM antagonist
- level at which effects on CAM binding are seen (NNOS [3]; NNOS): 10 µM
- effect on CAM binding to ENOS (in words) (ENOS): potent CAM antagonist
- level at which effects on CAM binding are seen (ENOS; ENOS): 10 µM
- Ligand binding to NOS [3H]-NHA (NOS [4]): 120.7 ± 12.7
- INOS Activity 0.1 mg/ml (INOS): 14.5 ± .70
- NOS Activity (% of control) INOS [5]: 92.1 ± 1.3 % of control
- NOS Activity (% of control) NNOS (recombinant rat NNOS): 19.1 ± 0.9 % of control
- NOS Activity (% of control) ENOS (recombinant bovine ENOS): 27.7 ± 2.0 % of control
Sequence: SSWRRKRKESS [BO58-08, 13; b114 cites it by residues 4-11]
